Laboratory results from PMC10250233, “RPA engages telomeric G-quadruplexes more effectively than CST”.

Columns and labels:
CST (CTC1-STN1-TEN1) [1] = target: T1, CST (CTC1-STN1-TEN1) (human, UniProt Q2NKJ3;Q9H668;Q86WV5 1-1217;1-368;1-123); test: fluorescence anisotropy; 200 mM NaCl; FA: 200 mM NaCl, KCl or LiCl, 20 mM HEPES pH 7.4, 1 mM DTT, 22-25 C, 375 or 750 pM oligo, Kd,app +/- SEM; EMSA: 20 mM HEPES pH 7.4, 200 mM KCl, 1 nM 32P oligo; conditions: protein: recombinant, tags: 2xFLAG N-term on CTC1, 6xHis N-term on STN1 and TEN1, copies: 1;1;1, label: 5' fluorescein
T1 sequence (Q2NKJ3 whole entry, chain 1 of 3): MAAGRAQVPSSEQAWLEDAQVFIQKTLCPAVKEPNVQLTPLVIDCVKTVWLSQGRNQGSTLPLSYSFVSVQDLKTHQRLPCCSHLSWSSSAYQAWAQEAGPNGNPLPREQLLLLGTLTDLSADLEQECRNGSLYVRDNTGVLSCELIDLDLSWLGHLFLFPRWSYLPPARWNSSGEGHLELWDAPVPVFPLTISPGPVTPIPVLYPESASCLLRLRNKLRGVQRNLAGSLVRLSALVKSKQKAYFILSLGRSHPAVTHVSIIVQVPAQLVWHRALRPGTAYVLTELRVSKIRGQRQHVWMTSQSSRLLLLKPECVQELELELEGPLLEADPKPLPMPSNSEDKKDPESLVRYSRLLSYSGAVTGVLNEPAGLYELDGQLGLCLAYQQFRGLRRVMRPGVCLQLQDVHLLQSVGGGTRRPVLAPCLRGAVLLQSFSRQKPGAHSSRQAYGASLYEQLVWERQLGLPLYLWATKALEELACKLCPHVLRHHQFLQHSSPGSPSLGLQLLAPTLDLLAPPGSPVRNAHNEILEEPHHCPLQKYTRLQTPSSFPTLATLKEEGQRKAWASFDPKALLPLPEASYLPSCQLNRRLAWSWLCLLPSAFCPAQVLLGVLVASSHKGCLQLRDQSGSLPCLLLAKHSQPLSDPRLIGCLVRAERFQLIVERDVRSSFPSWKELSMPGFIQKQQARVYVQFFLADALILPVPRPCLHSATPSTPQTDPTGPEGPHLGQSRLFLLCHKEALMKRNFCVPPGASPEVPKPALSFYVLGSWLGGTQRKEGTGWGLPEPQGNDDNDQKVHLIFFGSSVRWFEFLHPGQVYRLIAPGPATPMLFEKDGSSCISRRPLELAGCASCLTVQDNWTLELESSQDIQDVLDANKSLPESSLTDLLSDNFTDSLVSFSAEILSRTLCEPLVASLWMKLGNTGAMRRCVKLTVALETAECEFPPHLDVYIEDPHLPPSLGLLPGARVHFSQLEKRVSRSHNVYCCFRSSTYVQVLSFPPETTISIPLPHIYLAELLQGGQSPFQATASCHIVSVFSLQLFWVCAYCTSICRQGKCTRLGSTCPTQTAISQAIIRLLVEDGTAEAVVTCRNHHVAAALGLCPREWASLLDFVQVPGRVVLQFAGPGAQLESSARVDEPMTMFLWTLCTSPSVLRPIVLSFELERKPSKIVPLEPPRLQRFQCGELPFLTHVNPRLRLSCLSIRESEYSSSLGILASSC
T1 sequence (Q9H668 whole entry, chain 2 of 3): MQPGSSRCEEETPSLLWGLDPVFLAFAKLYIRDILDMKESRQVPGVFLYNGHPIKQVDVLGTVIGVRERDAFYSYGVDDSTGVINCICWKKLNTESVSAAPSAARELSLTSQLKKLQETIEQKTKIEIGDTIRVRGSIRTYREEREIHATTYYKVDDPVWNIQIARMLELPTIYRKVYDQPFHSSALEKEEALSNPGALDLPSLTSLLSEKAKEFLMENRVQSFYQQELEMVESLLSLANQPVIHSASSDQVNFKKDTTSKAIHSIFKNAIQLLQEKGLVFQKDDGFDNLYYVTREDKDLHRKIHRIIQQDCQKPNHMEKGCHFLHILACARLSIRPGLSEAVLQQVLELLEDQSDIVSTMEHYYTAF
T1 sequence (Q86WV5 whole entry, chain 3 of 3): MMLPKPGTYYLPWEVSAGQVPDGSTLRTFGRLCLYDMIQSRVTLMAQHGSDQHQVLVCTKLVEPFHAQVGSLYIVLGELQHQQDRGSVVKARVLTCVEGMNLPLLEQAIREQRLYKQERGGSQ

[2] = target: T2, RPA WT (RPA70-RPA32-RPA14) (human, UniProt P27694;P15927;P35244 1-616;1-270;1-121); test: as above; conditions: protein: recombinant, tags: 6xHis N-term on RPA70 and RPA14, copies: 1;1;1, label: 5' fluorescein, linear in LiCl
T2 sequence (P27694 whole entry, chain 1 of 3): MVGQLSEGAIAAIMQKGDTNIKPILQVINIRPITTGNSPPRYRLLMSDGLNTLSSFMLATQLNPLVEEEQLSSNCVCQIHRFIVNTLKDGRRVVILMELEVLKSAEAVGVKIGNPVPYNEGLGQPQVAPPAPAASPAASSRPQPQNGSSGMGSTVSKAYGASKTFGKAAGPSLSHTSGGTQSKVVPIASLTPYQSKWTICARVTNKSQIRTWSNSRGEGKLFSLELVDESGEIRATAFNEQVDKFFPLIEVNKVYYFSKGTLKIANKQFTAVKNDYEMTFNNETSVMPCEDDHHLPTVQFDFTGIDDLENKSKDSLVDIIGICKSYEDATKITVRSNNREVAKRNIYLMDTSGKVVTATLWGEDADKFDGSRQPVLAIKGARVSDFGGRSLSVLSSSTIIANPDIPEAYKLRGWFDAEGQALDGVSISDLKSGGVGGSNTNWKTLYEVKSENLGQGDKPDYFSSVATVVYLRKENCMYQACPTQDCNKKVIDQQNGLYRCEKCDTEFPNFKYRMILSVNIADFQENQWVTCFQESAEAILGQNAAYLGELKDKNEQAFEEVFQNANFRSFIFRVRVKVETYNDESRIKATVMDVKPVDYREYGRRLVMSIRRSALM
T2 sequence (P15927 whole entry, chain 2 of 3): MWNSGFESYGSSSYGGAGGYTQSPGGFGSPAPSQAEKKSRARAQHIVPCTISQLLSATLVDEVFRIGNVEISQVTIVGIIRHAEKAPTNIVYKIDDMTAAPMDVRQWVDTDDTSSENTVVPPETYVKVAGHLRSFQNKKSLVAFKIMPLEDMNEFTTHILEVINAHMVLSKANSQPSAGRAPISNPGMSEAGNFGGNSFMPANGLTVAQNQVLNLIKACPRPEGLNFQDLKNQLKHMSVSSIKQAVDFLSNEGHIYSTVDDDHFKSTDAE
T2 sequence (P35244 whole entry, chain 3 of 3): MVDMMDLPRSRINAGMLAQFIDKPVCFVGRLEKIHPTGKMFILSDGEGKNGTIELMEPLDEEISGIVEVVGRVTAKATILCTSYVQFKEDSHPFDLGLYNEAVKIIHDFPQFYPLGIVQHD

CST (CTC1-STN1-TEN1) [3] = target: T1, CST (CTC1-STN1-TEN1); test: fluorescence anisotropy; 200 mM LiCl; FA: 200 mM NaCl, KCl or LiCl, 20 mM HEPES pH 7.4, 1 mM DTT, 22-25 C, 375 or 750 pM oligo, Kd,app +/- SEM; EMSA: 20 mM HEPES pH 7.4, 200 mM KCl, 1 nM 32P oligo; conditions: protein: recombinant, tags: 2xFLAG N-term on CTC1, 6xHis N-term on STN1 and TEN1, copies: 1;1;1, label: 5' fluorescein, linear in LiCl
[4] = target: T2, RPA WT (RPA70-RPA32-RPA14); test: as above; conditions: protein: recombinant, tags: 6xHis N-term on RPA70 and RPA14, copies: 1;1;1, label: 5' fluorescein, linear in LiCl
CST (CTC1-STN1-TEN1) [5] = target: T1, CST (CTC1-STN1-TEN1); test: fluorescence anisotropy; 200 mM KCl; FA: 200 mM NaCl, KCl or LiCl, 20 mM HEPES pH 7.4, 1 mM DTT, 22-25 C, 375 or 750 pM oligo, Kd,app +/- SEM; EMSA: 20 mM HEPES pH 7.4, 200 mM KCl, 1 nM 32P oligo; conditions: protein: recombinant, tags: 2xFLAG N-term on CTC1, 6xHis N-term on STN1 and TEN1, copies: 1;1;1, label: 5' fluorescein, linear in LiCl
[6] = target: T2, RPA WT (RPA70-RPA32-RPA14); test: as above; conditions: protein: recombinant, tags: 6xHis N-term on RPA70 and RPA14, copies: 1;1;1, label: 5' fluorescein, linear in LiCl
[7] = intramolecular G4 at 5' end, 18 nt 3' tail
[8] = intramolecular G4 at 3' end, 5' tail
[9] = parallel G4 in KCl (predominantly unimolecular)

B1: C22 (ssDNA)
DNA: CCCTAACCCTAACCCTAACCCT
Q: Which Kd (CST (CTC1-STN1-TEN1) [1]; linear) does the source give for B1 here?
A: 184 ± 28 nM

B2: Tel40 Middle G4 (structured_DNA)
DNA: AGTGTGAGTTAGGGTTAGGGTTAGGGTTAGGGTGAGTGTG
Q: Which results are given for B2?
A: Kd (CST (CTC1-STN1-TEN1) [1]; intramolecular G4 in middle, linear in LiCl): 1.04 ± 0.21 nM; Kd ([2]; intramolecular G4 in middle): 0.28 ± 0.03 nM; Kd (CST (CTC1-STN1-TEN1) [3]; intramolecular G4 in middle): 1.94 ± 0.16 nM; Kd ([4]; intramolecular G4 in middle): 0.61 ± 0.13 nM; Kd (CST (CTC1-STN1-TEN1) [5]; intramolecular G4 in middle): 4.4 ± 0.3 nM; Kd ([6]; intramolecular G4 in middle): 0.46 ± 0.05 nM

B3: Tel40 5' G4 (structured_DNA)
DNA: AGGGTTAGGGTTAGGGTTAGGGTGAGTGTGAGTGTGAGTG
Q: Which Kd (CST (CTC1-STN1-TEN1) [1]; intramolecular G4 at 5' end, 18 nt 3' tail, linear in LiCl) does the source give for B3 here?
A: 1.47 ± 0.23 nM

Q: And the Kd [2, 7]?
A: 0.78 ± 0.08 nM

Q: What about the Kd (CST (CTC1-STN1-TEN1) [3]; [7]) of the same binder?
A: 1.53 ± 0.17 nM

Q: What about the Kd [4, 7] of the same binder?
A: 0.82 ± 0.15 nM

Q: And the Kd [6, 7]?
A: 0.85 ± 0.21 nM

B4: 2JSL (structured_DNA)
DNA: TAGGGTTAGGGTTAGGGTTAGGGTT
Q: How did the Kd (CST (CTC1-STN1-TEN1) [3]; hybrid 2 G4 in KCl) turn out when B4 was run?
A: 8.3 ± 0.6 nM

B5: 2GKU (structured_DNA)
DNA: TTGGGTTAGGGTTAGGGTTAGGGA
Q: With B5 as the binder, how does the Kd (CST (CTC1-STN1-TEN1) [3]; hybrid 1 G4 in KCl) read?
A: 11.9 ± 1.2 nM

B6: 6GZN (structured_DNA)
DNA: GGGTAGGGAGCGGGAGAGGG
Q: Which Kd (CST (CTC1-STN1-TEN1) [3]; antiparallel G4 in KCl) does the source give for B6 here?
A: 1.1 ± 0.3 nM

B7: Tel40 3' G4 (structured_DNA)
DNA: AGTGTGAGTGTGAGTGTTAGGGTTAGGGTTAGGGTTAGGG
Q: For B7, which Kd (CST (CTC1-STN1-TEN1) [1]; intramolecular G4 at 3' end, 5' tail, linear in LiCl) is on record?
A: 2.3 ± 0.4 nM

Q: And the Kd [2, 8]?
A: 0.4 ± 0.08 nM

Q: What about the Kd (CST (CTC1-STN1-TEN1) [3]; [8]) of the same binder?
A: 1.09 ± 0.1 nM

Q: And the Kd [4, 8]?
A: 0.68 ± 0.16 nM

Q: What about the Kd (CST (CTC1-STN1-TEN1) [5]; [8]) of the same binder?
A: 3.4 ± 0.5 nM

Q: And the Kd [6, 8]?
A: 0.52 ± 0.11 nM

B8: 2M27 (structured_DNA)
DNA: CGGGGCGGGCCTTGGGCGGGGT
Q: With B8 as the binder, how does the Kd (CST (CTC1-STN1-TEN1) [3]; [9]) read?
A: 10.8 ± 0.2 nM

Q: And the Kd (CST (CTC1-STN1-TEN1) [5]; [9])?
A: 13.3 ± 0.9 nM

B9: 2KM3 (structured_DNA)
DNA: AGGGCTAGGGCTAGGGCTAGGG
Q: For B9, which Kd (CST (CTC1-STN1-TEN1) [3]; antiparallel G4 in KCl) is on record?
A: 4.5 ± 0.3 nM

B10: 2LBY (structured_DNA)
DNA: TAGGGAGGGTAGGGAGGGT
Q: Which Kd (CST (CTC1-STN1-TEN1) [3]; parallel G4 in KCl) does the source give for B10 here?
A: 11.5 ± 1.3 nM

Q: What about the Kd (CST (CTC1-STN1-TEN1) [5]; parallel G4 in KCl) of the same binder?
A: 26.5 ± 1.5 nM
